From paper PMC2955445 (Journal of the American Chemical Society, 2010)
Read-outs that look alike come from different tables or passages of the source.

B1: Enzyme I (EI), full length (residues 1-575), from E. coli (enzyme)
chain: not shown

Legend:
AUC = biological target: the molecule itself; test: AUC
[1] = biological target: B1; test: ITC
[2] = biological target: B1; test: ITC; remark: listed apart in the source

Binder	stoichiometry N (AUC)	Kd [1] [µM]	Kd [2] [µM]
B1	2	–	–
histidine phosphocarrier protein HPr (natural protein) not shown	–	6.8 ± 1.8	21 ± 1.1
